The source of these data is publication PMC9596277.

Assay [1] addresses digalactosylated afucosylated (G2) palivizumab glycoform (human). Briefly: SPR; Biacore T200, 25°C, PBS with 0.05% Tween 20 and 3.4 mM EDTA; palivizumab analogues captured on immobilised Protein A (CM-5); FcγRIIIA injected, single-cycle kinetics, 2.3 nM to 0.56 µM; 1:1 binding model, KD from the ratio of the rate constants; three repeats. For orientation: In SPR one partner is held on a chip, and binding of the other changes the refractive index at the surface.

Assay [2] deals with afucosylated agalactosylated (G0) palivizumab glycoform (human). The assay is described as above.
Chain of afucosylated agalactosylated (G0) palivizumab glycoform (human) (heavy, as listed by the source, chain 1 of 2): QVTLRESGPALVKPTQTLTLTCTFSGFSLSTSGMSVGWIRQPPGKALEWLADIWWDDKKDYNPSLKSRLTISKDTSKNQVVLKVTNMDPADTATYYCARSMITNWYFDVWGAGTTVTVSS
Chain of afucosylated agalactosylated (G0) palivizumab glycoform (human) (light, as listed by the source, chain 2 of 2): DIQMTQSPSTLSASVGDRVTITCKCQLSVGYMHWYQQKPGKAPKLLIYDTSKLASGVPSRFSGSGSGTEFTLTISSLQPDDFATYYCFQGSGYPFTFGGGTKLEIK
Assay [3] concerns the target afucosylated palivizumab glycoform monogalactosylated at the α3 antenna (G1(3)) (human). The assay is described as above.
Assay [4] concerns the target afucosylated palivizumab glycoform monogalactosylated at the α6 antenna (G1(6)) (human). The description is as above.
Assay [5] has as its target commercially available palivizumab (Synagis) (human). As to the kind of experiment: SPR; same set-up as the kinetic SPR (palivizumab captured on Protein A, FcγRIIIA injected); value told as steady state binding.
Assay [6] addresses FcγRIIIa (CD16A) F176 on NK92-GFP-CD16A cells (F variant) (human) (UniProt P08637). Briefly: flow cytometry on cells; NK92-GFP-CD16A cells (V or F variant) with 2.5-fold serial dilutions of palivizumab glycoforms in 1% BSA/PBS, 4°C, 30 min; detected with Alexa Fluor 647 anti-human IgG F(ab')2-specific fragment; % GFP+AF647+ cells. In general terms: In flow cytometry, cells or beads pass a laser one at a time.

Assay [7] concerns the target FcγRIIIa (CD16A) V176 on NK92-GFP-CD16A cells (V variant) (human) (UniProt P08637).

Chain of afucosylated palivizumab glycoform monogalactosylated at the α3 antenna (G1(3)) (human) (heavy, as listed by the source, chain 1 of 2): as the sequence (heavy, as listed by the source, chain 1 of 2) above
Chain of afucosylated palivizumab glycoform monogalactosylated at the α3 antenna (G1(3)) (human) (light, as listed by the source, chain 2 of 2): as the sequence (light, as listed by the source, chain 2 of 2) above
Chain of afucosylated palivizumab glycoform monogalactosylated at the α6 antenna (G1(6)) (human) (heavy, as listed by the source, chain 1 of 2): as the sequence (heavy, as listed by the source, chain 1 of 2) above
Chain of afucosylated palivizumab glycoform monogalactosylated at the α6 antenna (G1(6)) (human) (light, as listed by the source, chain 2 of 2): as the sequence (light, as listed by the source, chain 2 of 2) above
Chain of digalactosylated afucosylated (G2) palivizumab glycoform (human) (heavy, as listed by the source, chain 1 of 2): as the sequence (heavy, as listed by the source, chain 1 of 2) above
Chain of digalactosylated afucosylated (G2) palivizumab glycoform (human) (light, as listed by the source, chain 2 of 2): as the sequence (light, as listed by the source, chain 2 of 2) above
Chain of commercially available palivizumab (Synagis) (human) (heavy, as listed by the source, chain 1 of 2): as the sequence (heavy, as listed by the source, chain 1 of 2) above
Chain of commercially available palivizumab (Synagis) (human) (light, as listed by the source, chain 2 of 2): as the sequence (light, as listed by the source, chain 2 of 2) above

In the case of “FcγRIIIA CD16A high binding (V) variant, National Research Council (Canada) (from UniProt P08637 17-254) (receptor)”, the Kd – broadly, a measure of binding affinity in units of concentration – is 0.0059 µM in assay [1]; 0.11 µM in assay [2]; 0.11 µM in assay [3]; 0.006 µM in assay [4]; 1 µM in assay [5].
For “afucosylated agalactosylated (G0) palivizumab glycoform (antibody)”, in assay [6], the maximum percent of cells bound was found to be 30%.
Regarding “FcγRIIIA CD16A low binding (F) variant, National Research Council (Canada) (from UniProt P08637 17-254) (receptor)”, the Kd was 0.0256 µM in assay [1], 0.06 µM in assay [2], 0.06 µM in assay [3] and 0.025 to 0.031 µM in assay [4].
The substance “afucosylated palivizumab glycoform monogalactosylated at the α3 antenna (G1(3)) (antibody)” gave a maximum percent of cells bound in assay [6] of 30%.
“afucosylated palivizumab glycoform monogalactosylated at the α6 antenna (G1(6)) (antibody)” returned an ADCC reporter assay (Jurkat T-cell luciferase reporter cells, CD16A V variant; RSV-infected Hep2 cells), activity against the G0 glycoform in assay [7] of 2 fold.
In turn, “digalactosylated afucosylated (G2) palivizumab glycoform (antibody)” gave an ADCC reporter assay (Jurkat T-cell luciferase reporter cells, CD16A V variant; RSV-infected Hep2 cells), activity against the G0 glycoform in assay [7] of 2 fold.
